Reference: patent US20140287434

Experiments:
[1] = molecular target: Itk SH3-SH2 (Itk 32), Q03526
[2] = molecular target: full-length wild-type Lck
Peptide B = molecular target: T1, Peptide B
T1 chain: EQEDEPEGIYGVLF

[3] = molecular target: T2, biotinylated PLCγ1 SH2C-Peptide B fusion protein, P10686
T2 chain: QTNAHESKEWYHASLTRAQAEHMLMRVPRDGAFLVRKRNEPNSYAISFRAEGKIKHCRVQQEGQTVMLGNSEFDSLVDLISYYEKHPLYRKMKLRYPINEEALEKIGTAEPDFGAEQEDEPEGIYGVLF

Itk SH3, Q03526 = molecular target: T3, Itk SH3, Q03526
T3 chain: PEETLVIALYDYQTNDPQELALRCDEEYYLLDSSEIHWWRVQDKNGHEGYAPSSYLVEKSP

[4] = molecular target: T4, Itk SH3-Linker (Itk 3Linker), Q03526
T4 chain: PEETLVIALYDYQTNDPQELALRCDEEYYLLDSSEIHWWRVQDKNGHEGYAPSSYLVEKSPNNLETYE

[5] = molecular target: N-terminal Phosphatidylinositol 3-Kinase (p85α) SH2 domain (PI3K SH2)
PLCγ1 -Y783-SH3, P10686 = molecular target: T5, PLCγ1 -Y783-SH3, P10686
T5 chain: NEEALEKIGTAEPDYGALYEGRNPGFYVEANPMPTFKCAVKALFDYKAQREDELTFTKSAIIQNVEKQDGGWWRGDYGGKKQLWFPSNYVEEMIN

[6] = molecular target: T6, PLCγ1 SH2C -Y783-, P10686
T6 chain: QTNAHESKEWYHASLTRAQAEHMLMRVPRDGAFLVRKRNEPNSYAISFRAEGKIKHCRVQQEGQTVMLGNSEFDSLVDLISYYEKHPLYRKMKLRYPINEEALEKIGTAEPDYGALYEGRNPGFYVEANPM

[7] = molecular target: T7, free Itk SH2 domain, Q03526
T7 chain: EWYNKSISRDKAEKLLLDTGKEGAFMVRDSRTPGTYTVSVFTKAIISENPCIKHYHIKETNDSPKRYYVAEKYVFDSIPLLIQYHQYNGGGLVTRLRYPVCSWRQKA

[8] = molecular target: T8, free PLCγ1 SH2C domain, P10686
T8 chain: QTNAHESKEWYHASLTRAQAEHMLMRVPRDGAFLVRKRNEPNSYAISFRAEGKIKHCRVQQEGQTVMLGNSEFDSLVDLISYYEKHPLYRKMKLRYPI

Chain of Grb2 SH2 domain (chain, as listed by the source): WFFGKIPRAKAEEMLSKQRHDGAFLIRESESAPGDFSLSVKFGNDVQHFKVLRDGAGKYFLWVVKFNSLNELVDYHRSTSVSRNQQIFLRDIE

B1: FLAG-tagged Itk kinase domain (Itk KD) (protein)
chain: VIQPSELTFVQEIGSGQFGLVHLGYWLNKDKVAIKTIQEGAMSEEDFIEEAEVMMKLSHPKLVQLYGVCLEQAPICLVFEFMEHGCLSDYLRSQRGLFAAETLLGMCLDVCEGMAYLEKACVIHRDLAARNCLVGENQVIKVSDFGMTRFVLDDQYTSSTGTKFPVKWASPEVFSFSRYSSKSDVWSFGVLMWEVFSEGKIPYENRSNSEVVEDISTGFRLYKPRLASCHVYQIMNHCWKEKPEDRPPFSQLLSQLAEIAEAGL
phosphorylation of Itk 32 by the isolated Itk kinase domain (anti-pY180 blot) [1]: The Itk catalytic fragment leads to substrate phosphorylation

B2: Catalytically inactive (K390R) Itk kinase domain (KD) (protein)
chain: VIQPSELTFVQEIGSGQFGLVHLGYWLNRDKVAIKTIQEGAMSEEDFIEEAEVMMKLSHPKLVQLYGVCLEQAPICLVFEFMEHGCLSDYLRSQRGLFAAETLLGMCLDVCEGMAYLEKACVIHRDLAARNCLVGENQVIKVSDFGMTRFVLDDQYTSSTGTKFPVKWASPEVFSFSRYSSKSDVWSFGVLMWEVFSEGKIPYENRSNSEVVEDISTGFRLYKPRLASCHVYQIMNHCWKEKPEDRPPFSQLLSQLAEIAEAGL
phosphorylation of Itk Y511 by Lck (Btk phosphoY551 antibody blot) [2]: phosphorylation of the Itk kinase domain alone (on Y511) by Lck is very inefficient

B3: FLAG-tagged Itk LKD enzyme (protein)
chain: CSWRQKAPVTAGLRYGKWVIQPSELTFVQEIGSGQFGLVHLGYWLNKDKVAIKTIQEGAMSEEDFIEEAEVMMKLSHPKLVQLYGVCLEQAPICLVFEFMEHGCLSDYLRSQRGLFAAETLLGMCLDVCEGMAYLEKACVIHRDLAARNCLVGENQVIKVSDFGMTRFVLDDQYTSSTGTKFPVKWASPEVFSFSRYSSKSDVWSFGVLMWEVFSEGKIPYENRSNSEVVEDISTGFRLYKPRLASCHVYQIMNHCWKEKPEDRPPFSQLLSQLAEIAEAGL
Km (Peptide B): 87 µM for Peptide B alone
Km [3]: 5.64 µM for the SH2-Peptide B fusion
fold increase in substrate affinity against Peptide B alone [3]: exhibiting a 15-fold increase in substrate affinity
kcat/Km against Peptide B alone [3]: Peptide B is a better substrate by 7-fold (kat/Km) when tethered to the SH2 domain of PLCγ1

B4: FLAG-tagged Itk full-length (FLItk) enzyme (protein)
chain: MNNFILLEEQLIKKSQQKRRTSPSNFKVRFFVLTKASLAYFEDRHGKKRTLKGSIELSRIKCVEIVKSDISIPCHYKYPFQTLVYLQVVHDNYLLYVFAPDCESRQRWVLTLKEETRNNNSLVSKYHPNFWMDGRWRCCSQLEKPAVGCAPYDPSKNASKKPLPPTPEDNRRSFQEPEETLVIALYDYQTNDPQELALRCDEEYYLLDSSEIHWWRVQDKNGHEGYAPSSYLVEKSPNNLETYEWYNKSISRDKAEKLLLDTGKEGAFMVRDSRTPGTYTVSVFTKAIISENPCIKHYHIKETNDSPKRYYVAEKYVFDSIPLLIQYHQYNGGGLVTRLRYPVCSWRQKAPVTAGLRYGKWVIQPSELTFVQEIGSGQFGLVHLGYWLNKDKVAIKTIQEGAMSEEDFIEEAEVMMKLSHPKLVQLYGVCLEQAPICLVFEFMEHGCLSDYLRSQRGLFAAETLLGMCLDVCEGMAYLEKACVIHRDLAARNCLVGENQVIKVSDFGMTRFVLDDQYTSSTGTKFPVKWASPEVFSFSRYSSKSDVWSFGVLMWEVFSEGKIPYENRSNSEVVEDISTGFRLYKPRLASCHVYQIMNHCWKEKPEDRPPFSQLLSQLAEIAEAGL
phosphorylation of Itk 32 and PLCγ1 SH2C -Y783- by full-length Itk (Grb2 SH2 domain): two different control SH2 domains (derived from PI3K and Grb2) do not inhibit the phosphorylation of the substrates even at large molar excess
phosphorylation on Y180 in an in vitro kinase assay (Itk SH3, Q03526): the isolated SH3 domain does not serve as a substrate for full length Itk
phosphorylation on Y180 in an in vitro kinase assay [4]: Only Itk fragments that contain the SH2 domain and Y180 are phosphorylated by Itk
phosphorylation on Y180 in an in vitro kinase assay [1]: only substrates that contain both the site of phosphorylation (Y180 for Itk, Y187 for Tec, Y223 for Btk, and Y783 for PLCγ1) and the adjacent SH2 domain are phosphorylated by the Tec kinases
phosphorylation of Itk 32 and PLCγ1 SH2C -Y783- by full-length Itk [5]: two different control SH2 domains (derived from PI3K and Grb2) do not inhibit the phosphorylation of the substrates even at large molar excess
phosphorylation on Y783 in an in vitro kinase assay (PLCγ1 -Y783-SH3, P10686): is not phosphorylated by full length Itk
phosphorylation on Y783 in an in vitro kinase assay [6]: only substrates that contain both the site of phosphorylation (Y180 for Itk, Y187 for Tec, Y223 for Btk, and Y783 for PLCγ1) and the adjacent SH2 domain are phosphorylated by the Tec kinases
autophosphorylation of Tyr 180 within full length Itk [7]: autophosphorylation at this site is greatly diminished upon addition of free Itk SH2 domain
initial velocity of peptide B phosphorylation by full length Itk [7]: do not change significantly with increasing concentrations of Itk SH2 domain
phosphorylation of Itk 32 substrate on Y180 by full-length Itk (anti-pY180 blot) [7]: free Itk SH2 domain competes with the Itk 32 substrate
phosphorylation of PLCγ1 SH2C -Y783- substrate by full-length Itk (anti-pY783 blot) [8]: The PLCγ1 SH2 domain competes with the PLCγ1 substrate in a similar manner

B5: FLAG-tagged Tec full-length enzyme (enzyme, UniProt P42680 1-631, looked up, species assumed)
chain: MNFNTILEEILIKRSQQKKKTSPLNYKERLFVLTKSMLTYYEGRAEKKYRKGFIDVSKIKCVEIVKNDDGVIPCQNKYPFQVVHDANTLYIFAPSPQSRDLWVKKLKEEIKNNNNIMIKYHPKFWTDGSYQCCRQTEKLAPGCEKYNLFESSIRKALPPAPETKKRRPPPPIPLEEEDNSEEIVVAMYDFQAAEGHDLRLERGQEYLILEKNDVHWWRARDKYGNEGYIPSNYVTGKKSNNLDQYEWYCRNMNRSKAEQLLRSEDKEGGFMVRDSSQPGLYTVSLYTKFGGEGSSGFRHYHIKETTTSPKKYYLAEKHAFGSIPEIIEYHKHNAAGLVTRLRYPVSVKGKNAPTTAGFSYEKWEINPSELTFMRELGSGLFGVVRLGKWRAQYKVAIKAIREGAMCEEDFIEEAKVMMKLTHPKLVQLYGVCTQQKPIYIVTEFMERGCLLNFLRQRQGHFSRDVLLSMCQDVCEGMEYLERNSFIHRDLAARNCLVSEAGVVKVSDFGMARYVLDDQYTSSSGAKFPVKWCPPEVFNYSRFSSKSDVWSFGVLMWEVFTEGRMPFEKYTNYEVVTMVTRGHRLYQPKLASNYVYEVMLRCWQEKPEGRPSFEDLLRTIDELVECEETFGR
modifications: full-length FLAG tag
phosphorylation on Y187 in an in vitro kinase assay (Tec SH3-SH2 (Tec 32)): only substrates that contain both the site of phosphorylation (Y180 for Itk, Y187 for Tec, Y223 for Btk, and Y783 for PLCγ1) and the adjacent SH2 domain are phosphorylated by the Tec kinases
phosphorylation on Y187 in an in vitro kinase assay (Tec SH3): are not phosphorylated by the Tec and Btk kinases

B6: Catalytically inactive (K390R) Itk SH2-kinase domain (2KD) (protein)
chain: EWYNKSISRDKAEKLLLDTGKEGAFMVRDSRTPGTYTVSVFTKAIISENPCIKHYHIKETNDSPKRYYVAEKYVFDSIPLLIQYHQYNGGGLVTRLRYPVCSWRQKAPVTAGLRYGKWVIQPSELTFVQEIGSGQFGLVHLGYWLNRDKVAIKTIQEGAMSEEDFIEEAEVMMKLSHPKLVQLYGVCLEQAPICLVFEFMEHGCLSDYLRSQRGLFAAETLLGMCLDVCEGMAYLEKACVIHRDLAARNCLVGENQVIKVSDFGMTRFVLDDQYTSSTGTKFPVKWASPEVFSFSRYSSKSDVWSFGVLMWEVFSEGKIPYENRSNSEVVEDISTGFRLYKPRLASCHVYQIMNHCWKEKPEDRPPFSQLLSQLAEIAEAGL
phosphorylation of Itk Y511 by Lck (Btk phosphoY551 antibody blot) [2]: Lck phosphorylation of the SH2-kinase fragment of Itk proceeds readily
